Measurements reported in PMC9290910, “Neuropilin‐1 is required for endothelial cell adhesion to soluble vascular endothelial growth factor receptor 1” (The Febs Journal, 2021).

B1: Recombinant human VEGFR‐1/Fc (Fc fusion, UniProt P17948 27-758, looked up)
chain: SKLKDPELSLKGTQHIMQAGQTLHLQCRGEAAHKWSLPEMVSKESERLSITKSACGRNGKQFCSTLTLNTAQANHTGFYSCKYLAVPTSKKKETESAIYIFISDTGRPFVEMYSEIPEIIHMTEGRELVIPCRVTSPNITVTLKKFPLDTLIPDGKRIIWDSRKGFIISNATYKEIGLLTCEATVNGHLYKTNYLTHRQTNTIIDVQISTPRPVKLLRGHTLVLNCTATTPLNTRVQMTWSYPDEKNKRASVRRRIDQSNSHANIFYSVLTIDKMQNKDKGLYTCRVRSGPSFKSVNTSVHIYDKAFITVKHRKQQVLETVAGKRSYRLSMKVKAFPSPEVVWLKDGLPATEKSARYLTRGYSLIIKDVTEEDAGNYTILLSIKQSNVFKNLTATLIVNVKPQIYEKAVSSFPDPALYPLGSRQILTCTAYGIPQPTIKWFWHPCNHNHSEARCDFCSNNEESFILDADSNMGNRIESITQRMAIIEGKNKMASTLVVADSRISGIYICIASNKVGTVGRNISFYITDVPNGFHVNLEKMPTEGEDLKLSCTVNKFLYRDVTWILLRTVNNRTMHYSISKQKMAITKEHSITLNLTIMNVSLQDSGTYACRARNVYTGEEILQKKEITIRDQEAPYLLRNLSDHTVAISSSTTLDCHANGVPEPQITWFKNNHKIQQEPGIILGPGSSTLFIERVTEEDEGVYHCKATNQKGSVESSAYLTVQGTSDKSNLE
notes: VEGFR-1 (Flt-1), human, recombinant Fc chimera; also called sVEGFR‐1; sVEGFR‐1/Fc; source: bought: R&D Systems (321‐FL‐050)
B2: semaphorin 3A (ligand)
chain: NYQNGKNNVPRLKLSYKEMLESNNVITFNGLANSSSYHTFLLDEERSRLYVGAKDHIFSFDLVNIKDFQKIVWPVSYTRRDECKWAGKDILKECANFIKVLKAYNQTHLYACGTGAFHPICTYIEIGHHPEDNIFKLENSHFENGRGKSPYDPKLLTASLLIDGELYSGTAADFMGRDFAIFRTLGHHHPIRTEQHDSRWLNDPKFISAHLISESDNPEDDKVYFFFRENAIDGEHSGKATHARIGQICKNDFGGHRSLVNKWTTFLKARLICSVPGPNGIDTHFDELQDVFLMNFKDPKNPVVYGVFTTSSNIFKGSAVCMYSMSDVRRVFLGPYAHRDGPNYQWVPYQGRVPYPRPGTCPSKTFGGFDSTKDLPDDVITFARSHPAMYNPVFPMNNRPIVIKTDVNYQFTQIVVDRVDAEDGQYDVMFIGTDVGTVLKVVSIPKETWYDLEEVLLEEMTVFREPTAISAMELSTKQQQLYIGSTAGVAQLPLHRCDIYGKACAECCLARDPYCAWDGSACSRYFPTAKRRTRRQDIRNGDPLTHCSDLHHDNHHGHSPEERIIYGVENSSTFLECSPKSQRALVYWQFQRRNEERKEEIRVDDHIIRTDQGLLLRSLQQKDSGNYLCHAVEHGFIQTLLKVTLEVIDTEHLEELLHKDDDGDGSKTKEMSNSMTPSQKVWYRDFMQLINHPNLNTMDEFCEQVWKRDRKQRRQRPGHTPGNSNKWKHLQENKKGRNRRTHEFERAPRSV

What was measured:
NRP‐1 [1] = assay: SPR, α5β1 integrin binding to immobilized NRP‐1; design: species or system human; details: NRP‐1 immobilized, α5β1 integrin 20-500 nM
Protocol: SPR analysis of NRP‐1 interaction with α5β1 integrin or semaphorin 3A, in the absence or presence of Flt2‐11 peptide or ‘scrambled’ Flt2‐11. NRP‐1 is immobilized on sensor chip. (A) α5β1 integrin is injected at different concentrations (from bottom to top: 20 nM, cyan; 40 nM, red; 100 nM, green; 200 nM, blue; and 500 nM, black). […] (B) α5β1 integrin is injected at 200 nM concentration together with either Flt2‐11 peptide or scrambled Flt2‐11 peptide at different concentrations (no peptides, black; Flt2‐11 peptide […] and 20 μM, blue and cyan, respectively; scrambled Flt2‐11 peptide at 2 μM and 20 μM, red and purple, respectively). (C) Semaphorin 3A is injected at different concentrations (from bottom to top: 20 nM, cyan; 30 nM, red; 50 nM, green; 200 nM, blue; and 500 nM, black). […] (D) Semaphorin 3A is injected at 200 nM, and peptide Flt2‐11 at different concentrations (no peptides, black; Flt2‐11 peptide 1 μM and 10 μM blue and cyan, respectively; scrambled Flt2‐11 peptide 50 μM, red).
(§1) SPR experiments were carried out using a BIACORE X system (Biacore AB, Uppsala, Sweden). […] The reaction was carried out in 20 mM sodium acetate at pH 5.0, which is about 2 points below the theoretical NRP‐1 isoelectric point calculated using the program pI‐tool. […]
RU express the mass concentration‐dependent changes in the observed SPR signal, that is, the refractive index on the sensor chip surface. Changes in this signal are determined by the interaction between the immobilized protein (i.e., either NRP‐1 or VEGFR‐1) with the analyte protein (i.e., VEGFR‐1/Fc, α5β1 integrin or semaphorin 3A). […] Global fitting analyses of association and dissociation data for all ligand concentrations were carried out using BIAEVALUATION software 3.0 (Biacore, Uppsala, Sweden), which allows the ratio between association and dissociation constants (k on/k off) to be accurately determined. […]

sVEGFR‐1 = assay: SPR, α5β1 integrin binding to immobilized sVEGFR‐1; design: species or system human; details: sVEGFR‐1 immobilized, α5β1 integrin 80 nM-1 μM
Protocol: Fig. 7 sVEGFR‐1/α5β1 integrin interaction. (A) SPR analysis of the interaction between sVEGFR‐1 and α5β1 integrin. sVEGFR‐1 is immobilized on sensor chips and α5β1 integrin is injected at different concentrations (from bottom to top: 80 nM, cyan; 160 nM, red; 350 nM, green; 600 nM, blue; and 1 μM, black). […] (B) Secondary structure representation of the 3D structure of VEGFR‐1 Ig‐like domain II. β‐strands are represented by arrows and labelled from A to H; loops are shown as tubular ribbons; the N‐ and C‐terminal ends of the domain are indicated by labels. Colour coding: peptide 12 (interacting with α5β1 integrin) is blue; Flt2‐11 peptide (interacting with NRP‐1) is yellow in the five‐residue NITVT region corresponding to the Flt2‐5 peptide (see text), and green in the remaining six‐residues region; the rest of the domain is magenta. (C) Proposed mechanism of action of Flt2‐11 peptide. Left: Light blue arrows indicate the high‐affinity interactions: (i) between NRP‐1 (yellow) and α5β1 integrin (black) on the EC membrane; and (ii) between NRP‐1 on the EC membrane and the sVEGFR‐1 substrate (green). The dark blue arrow indicates the low‐affinity interaction between α5β1 integrin on the EC membrane and the sVEGFR‐1 substrate. The low‐affinity interaction is stabilized by the two high‐affinity interactions, and the angiogenic stimulus is triggered. Centre: The Flt2‐11 peptide inhibits the high‐affinity interaction between NRP‐1 on the EC membrane and the sVEGFR‐1 substrate. The low‐affinity interaction between α5β1 integrin on ECs and the sVEGFR‐1 substrate is not sufficiently stable to trigger the angiogenic stimulus that starts upon integrin engagement. […]
as §1

Recombinant human NRP‐1 = target: T1, Recombinant human NRP‐1 (human, UniProt O14786 22-856); assay: SPR; BIACORE X, CM5; NRP-1 immobilised by amine coupling; analyte in HEPES-buffered saline (10 mM HEPES pH 7.4, 150 mM NaCl, 0.005% P20); global 1:1 Langmuir fit; details: both partners purified
T1 construct: Neuropilin-1, human, recombinant soluble protein; see the vendor's datasheet (as far as I recall an extracellular fragment with a C-terminal His tag); also called Neuropilin‐1; soluble NRP‐1; source: bought: R&D Systems (3870‐N1)
T1 sequence (looked up): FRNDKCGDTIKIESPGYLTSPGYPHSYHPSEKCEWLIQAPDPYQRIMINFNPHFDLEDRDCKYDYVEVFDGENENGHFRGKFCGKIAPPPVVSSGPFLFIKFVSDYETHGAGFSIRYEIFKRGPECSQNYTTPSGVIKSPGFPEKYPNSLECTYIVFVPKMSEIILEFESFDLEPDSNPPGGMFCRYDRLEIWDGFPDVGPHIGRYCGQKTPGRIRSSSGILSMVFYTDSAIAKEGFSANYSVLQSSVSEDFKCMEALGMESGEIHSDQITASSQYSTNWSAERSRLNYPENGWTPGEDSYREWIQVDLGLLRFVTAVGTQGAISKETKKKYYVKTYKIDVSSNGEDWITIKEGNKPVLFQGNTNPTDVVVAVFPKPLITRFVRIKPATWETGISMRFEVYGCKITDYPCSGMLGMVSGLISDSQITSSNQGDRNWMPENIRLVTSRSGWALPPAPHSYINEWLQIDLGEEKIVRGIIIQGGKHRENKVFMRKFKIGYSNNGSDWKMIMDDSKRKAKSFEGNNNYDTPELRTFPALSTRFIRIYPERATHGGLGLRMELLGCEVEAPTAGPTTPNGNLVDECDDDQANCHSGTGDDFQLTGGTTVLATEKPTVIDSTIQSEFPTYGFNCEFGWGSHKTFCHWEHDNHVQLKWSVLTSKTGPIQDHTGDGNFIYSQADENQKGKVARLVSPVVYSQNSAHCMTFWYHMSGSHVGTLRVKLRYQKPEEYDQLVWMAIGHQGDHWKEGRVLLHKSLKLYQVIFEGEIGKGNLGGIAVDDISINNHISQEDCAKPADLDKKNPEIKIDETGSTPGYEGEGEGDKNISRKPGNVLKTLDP

Purified α5β1 integrin = target: T2, Purified α5β1 integrin (UniProt P08648 42-1049; P05556 21-728); assay: SPR; BIACORE X, CM5; VEGFR-1/Fc captured (about 200 RU) on amine-coupled protein A; α5β1 integrin injected; HEPES-buffered saline (10 mM HEPES pH 7.4, 150 mM NaCl, 0.005% P20); 1:1 Langmuir fit; details: both partners purified
T2 construct: integrin alpha-5 subunit; integrin beta-1 subunit; As far as I recall this product is purified from human tissue; also called integrin α5β1; source: bought: Merck Millipore (CC1052), purified, octyl‐β‐D‐glucopyranoside formulation
T2 sequence (P08648 42-1049, chain 1 of 2): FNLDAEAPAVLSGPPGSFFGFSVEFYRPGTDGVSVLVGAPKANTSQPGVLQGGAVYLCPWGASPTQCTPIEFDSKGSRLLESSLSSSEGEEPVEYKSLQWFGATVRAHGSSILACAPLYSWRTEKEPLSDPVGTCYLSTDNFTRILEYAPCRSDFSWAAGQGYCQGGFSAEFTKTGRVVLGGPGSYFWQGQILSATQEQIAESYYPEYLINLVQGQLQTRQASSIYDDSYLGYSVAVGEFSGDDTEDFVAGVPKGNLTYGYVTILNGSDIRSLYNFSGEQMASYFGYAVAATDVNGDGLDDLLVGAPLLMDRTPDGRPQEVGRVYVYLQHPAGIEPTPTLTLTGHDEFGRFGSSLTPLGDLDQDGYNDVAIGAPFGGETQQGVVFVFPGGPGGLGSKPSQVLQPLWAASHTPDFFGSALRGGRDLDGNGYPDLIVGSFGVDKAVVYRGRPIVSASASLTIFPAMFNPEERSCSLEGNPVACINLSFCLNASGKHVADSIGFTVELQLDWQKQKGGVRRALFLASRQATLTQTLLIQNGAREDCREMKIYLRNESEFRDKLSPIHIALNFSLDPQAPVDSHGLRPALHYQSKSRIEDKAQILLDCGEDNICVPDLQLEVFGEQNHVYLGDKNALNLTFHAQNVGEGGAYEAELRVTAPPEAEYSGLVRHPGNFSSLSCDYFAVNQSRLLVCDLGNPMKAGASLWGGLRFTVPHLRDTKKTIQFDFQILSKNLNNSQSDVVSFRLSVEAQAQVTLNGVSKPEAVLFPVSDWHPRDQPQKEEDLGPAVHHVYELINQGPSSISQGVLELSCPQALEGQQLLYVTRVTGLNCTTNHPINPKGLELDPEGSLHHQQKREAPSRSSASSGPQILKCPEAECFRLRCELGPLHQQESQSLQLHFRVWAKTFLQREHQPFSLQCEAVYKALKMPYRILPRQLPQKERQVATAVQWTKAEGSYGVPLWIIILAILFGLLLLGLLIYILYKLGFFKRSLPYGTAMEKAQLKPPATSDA
T2 sequence (P05556 21-728, chain 2 of 2): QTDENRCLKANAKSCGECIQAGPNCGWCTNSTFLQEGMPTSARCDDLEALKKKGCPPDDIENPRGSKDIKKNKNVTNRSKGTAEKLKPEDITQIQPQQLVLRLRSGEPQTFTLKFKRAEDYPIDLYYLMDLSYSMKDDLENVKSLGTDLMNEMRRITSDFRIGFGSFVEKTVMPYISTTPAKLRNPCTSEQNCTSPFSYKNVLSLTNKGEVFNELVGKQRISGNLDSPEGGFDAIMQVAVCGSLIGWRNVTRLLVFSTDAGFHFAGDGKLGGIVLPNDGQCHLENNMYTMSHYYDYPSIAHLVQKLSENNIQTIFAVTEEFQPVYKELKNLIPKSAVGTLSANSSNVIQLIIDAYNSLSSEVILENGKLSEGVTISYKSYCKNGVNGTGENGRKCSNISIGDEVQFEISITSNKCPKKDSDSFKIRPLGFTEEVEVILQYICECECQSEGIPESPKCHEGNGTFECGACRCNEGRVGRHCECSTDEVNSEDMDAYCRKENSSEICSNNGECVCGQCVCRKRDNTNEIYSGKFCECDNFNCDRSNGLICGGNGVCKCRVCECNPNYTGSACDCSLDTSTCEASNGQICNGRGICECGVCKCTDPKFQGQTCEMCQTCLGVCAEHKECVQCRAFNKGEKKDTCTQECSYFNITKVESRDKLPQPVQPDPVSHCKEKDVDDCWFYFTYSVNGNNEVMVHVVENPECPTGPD

NRP‐1 [2] = assay: SPR, semaphorin 3A binding to immobilized NRP‐1; design: species or system human; details: NRP‐1 immobilized, semaphorin 3A 20-500 nM
Protocol: SPR analysis of NRP‐1 interaction with α5β1 integrin or semaphorin 3A, in the absence or presence of Flt2‐11 peptide or ‘scrambled’ Flt2‐11. NRP‐1 is immobilized on sensor chip. (A) α5β1 integrin is injected at different concentrations (from bottom to top: 20 nM, cyan; 40 nM, red; 100 nM, green; 200 nM, blue; and 500 nM, black). […] (B) α5β1 integrin is injected at 200 nM concentration together with either Flt2‐11 peptide or scrambled Flt2‐11 peptide at different concentrations (no peptides, black; Flt2‐11 peptide […] and 20 μM, blue and cyan, respectively; scrambled Flt2‐11 peptide at 2 μM and 20 μM, red and purple, respectively). (C) Semaphorin 3A is injected at different concentrations (from bottom to top: 20 nM, cyan; 30 nM, red; 50 nM, green; 200 nM, blue; and 500 nM, black). […]
as §1
RU express the mass concentration‐dependent changes in the observed SPR signal, that is, the refractive index on the sensor chip surface. Changes in this signal are determined by the interaction between the immobilized protein (i.e., either NRP‐1 or VEGFR‐1) with the analyte protein (i.e., VEGFR‐1/Fc, α5β1 integrin or semaphorin 3A). […]

Row | Molecule | k off (NRP‐1 [1]) | k on (NRP‐1 [1]) | Kd (NRP‐1 [1]; read-out: K D, NRP‐1/α5β1 integrin) | k off (sVEGFR‐1) | k on (sVEGFR‐1) | Kd (sVEGFR‐1; read-out: K D, sVEGFR‐1/α5β1 integrin) | Kd (Recombinant human NRP‐1) | koff (Recombinant human NRP‐1) | kon (Recombinant human NRP‐1) | Kd (Purified α5β1 integrin) | koff (Purified α5β1 integrin) | kon (Purified α5β1 integrin) | k off (NRP‐1 [2]) | k on (NRP‐1 [2])
1 | α5β1 integrin: Purified α5β1 integrin (CC1052), Merck Millipore | 0.00029 s⁻¹ | 21000 M⁻¹ s⁻¹ | 14 ± 4 nM | 0.00029 s⁻¹ | 1500 M⁻¹ s⁻¹ | 195 ± 40 nM |  |  |  |  |  |  |  | 
2 | B1 |  |  |  |  |  |  | 25 ± 4 nM | 0.0003 s⁻¹ | 12000 M⁻¹ s⁻¹ | 195 ± 40 nM | 0.00029 s⁻¹ | 1500 M⁻¹ s⁻¹ |  | 
3 | B2 |  |  |  |  |  |  | 24 ± 6 nM | 9e-05 s⁻¹ | 3700 M⁻¹ s⁻¹ |  |  |  | 9e-05 s⁻¹ | 3700 M⁻¹ s⁻¹
